Target: EGFR recombinant human protein (human, UniProt P00533 25-645)
Assay: SPR

Kd: 7.2 µM
Binder: AEYDFYGPGNEGSW (designed binder) [Pep24]

From paper PMC6353898 (2019)
